Experimental data from patent EP4491631A1.
Substitutions are numbered along the chain they refer to.

Target: cynomolgus PD-1 expressed on cells (cynomolgus monkey) (UniProt B0LAJ3)
Assay: flow cytometry, CHO-S Cyno-PD-1

cynomolgus PD-1 expressed on cells (cynomolgus monkey), sequence (B0LAJ3 entry or part of it limits assumed): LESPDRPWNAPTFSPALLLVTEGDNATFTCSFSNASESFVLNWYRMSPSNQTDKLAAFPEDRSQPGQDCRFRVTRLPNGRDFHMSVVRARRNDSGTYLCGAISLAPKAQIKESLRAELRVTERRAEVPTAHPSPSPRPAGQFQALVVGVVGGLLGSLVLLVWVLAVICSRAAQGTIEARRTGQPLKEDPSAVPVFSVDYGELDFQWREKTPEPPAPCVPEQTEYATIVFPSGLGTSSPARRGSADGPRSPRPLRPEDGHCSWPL

B1: z2-XVT458 (antibody, IgG1, V domains shown)
VH: QVQLVQSGAEVKKPGASVKVSCKASGYTFTNFYIHWVRQAPGQGLEWMGSIYPNYGDTAYNQKFKDRVTMTVDTSTSTAYMELRSLRSDDTAVYYCARGYSYAMDYWGQGTTVTVSS
VL: DIQMTQSPSSVSASVGDRVTITCSASQGISGDLNWYQQKPGKAPKLLIYHTSSLHSGVPSRFSGSGSGTDFTLTISSLQPEDFATYYCQYYSKDLLTFGGGTKLEIK
B1 was tested, and the Max MFI was 109 MFI.

B2: XVT458-z2-m5 (antibody, V domains shown)
VH: B1 VH with S50R, D57I
VL: B1 VL with S30Y, L54R, Y90A
Binder B2 has a Max MFI of 335 MFI.

B3: XVT458-z2-m1 (antibody, V domains shown)
VH: B1 VH with D57F
VL: B1 VL with S30W, S53Q, G57D, Y90G
For B3, the Max MFI was 70 MFI.

B4: XVT458-z2-m4 (antibody, V domains shown)
VH: B1 VH with S50R, D57I
VL: B1 VL with L54R, Y90G
B4 showed a Max MFI of 258 MFI.

B5: XVT458-z2-m2 (antibody, V domains shown)
VH: B1 VH with S50R, D57F
VL: B1 VL with S30Y, Y90A
In the case of B5, the Max MFI is reported as 367 MFI.

B6: XVT458-z2-m3 (antibody, V domains shown)
VH: B1 VH with S50R, D57I
VL: B1 VL with S53Q, L54R, G57D, Y90G
B6 gave a Max MFI of 124 MFI.

B7: XVT458-z2-m6 (antibody, V domains shown)
VH: B1 VH with D57I
VL: B1 VL with S53Q, G57D, Y90G
With B7 the Max MFI was 59 MFI.
